According to the supplement of paper PMC9233669:
Variants at the floor of the assay were thinned out.

Legend:
biotinyl-Leu-oxazolone = assay: self-aminoacylation, catalytic enhancement (BLO) (fold over background); higher = more active; k-Seq, kA / k0A0; sequences stand for … in GGGAAUGGAUCCACAUCUACGAAUUC…UUCACUGCAGACUUGACGAAGCUG
How it was run: (§1)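 The uncatalyzed rate is the low-activity peak of a bimodal Gaussian fit, and catalytic enhancement is median kA divided by it. The kA values came from pseudo-first-order fits, with 1000 bootstraps, of per-sequence fraction reacted measured by streptavidin capture, triplicate qPCR and Illumina sequencing. Mutagenized RNA pools with a 21-nt variable region (0.43 μM) were reacted with each biotinyl-aminoacyl-oxazolone at 2–1250 μM in 50 μL HEPES/NaCl/KCl/MgCl2/CaCl2 buffer with 5% acetonitrile, pH 6.9–7.0, for 90 minutes at room temperature.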

biotinyl-Met-oxazolone = assay: self-aminoacylation, catalytic enhancement (BMO) (fold over background); higher = more active; k-Seq, kA / k0A0; sequences stand for … in GGGAAUGGAUCCACAUCUACGAAUUC…UUCACUGCAGACUUGACGAAGCUG
How it was run: as §1

biotinyl-Val-oxazolone = assay: self-aminoacylation, catalytic enhancement (BVO) (fold over background); higher = more active; k-Seq, kA / k0A0; sequences stand for … in GGGAAUGGAUCCACAUCUACGAAUUC…UUCACUGCAGACUUGACGAAGCUG
How it was run: as §1

biotinyl-Trp-oxazolone = assay: self-aminoacylation, catalytic enhancement (BWO) (fold over background); higher = more active; k-Seq, kA / k0A0; sequences stand for … in GGGAAUGGAUCCACAUCUACGAAUUC…UUCACUGCAGACUUGACGAAGCUG
How it was run: as §1

biotinyl-Phe-oxazolone = assay: self-aminoacylation, catalytic enhancement (BFO) (fold over background); higher = more active; k-Seq, kA / k0A0; sequences stand for … in GGGAAUGGAUCCACAUCUACGAAUUC…UUCACUGCAGACUUGACGAAGCUG
How it was run: as §1

biotinyl-Ile-oxazolone = assay: self-aminoacylation, catalytic enhancement (BIO) (fold over background); higher = more active; k-Seq, kA / k0A0; sequences stand for … in GGGAAUGGAUCCACAUCUACGAAUUC…UUCACUGCAGACUUGACGAAGCUG
How it was run: as §1

| Sequence | self-aminoacylation (biotinyl-Leu-oxazolone) | self-aminoacylation (biotinyl-Met-oxazolone) | self-aminoacylation (biotinyl-Val-oxazolone) | self-aminoacylation (biotinyl-Trp-oxazolone) | self-aminoacylation (biotinyl-Phe-oxazolone) | self-aminoacylation (biotinyl-Ile-oxazolone) |
| --- | --- | --- | --- | --- | --- | --- |
| CUACUUCAAUCAAUCGGUCUU [Fam1A.1 aminoacylation ribozyme variant] | 1.35 | 1.07 | 1.11 | 10.6 | 19.8 | 1.23 |
| AAGUCUGCUUAUAGUCGCAAG [Fam3.1 aminoacylation ribozyme variant] | 1.25 | 1.18 | 0.822 | 0.87 | 1.42 | 0.895 |
| CUAGUUCAAAGAAUCGGUCUG [Fam1A.1 aminoacylation ribozyme variant] | 1.14 | 1.04 | 0.951 | 1.44 | 1.5 | 0.967 |
| CAUCACCUAGGUCAUCGGGUG [Fam2.2 aminoacylation ribozyme variant] | 6.23 | 6.18 | 4.05 | 5.76 | 21 | 3.15 |
| CUGCUUCAAACAAUCGCUCUG [Fam1A.1 aminoacylation ribozyme variant] | 0.984 | 0.937 | 0.888 | 3.14 | 4.43 | 0.876 |
| AUUUCCCUGGUAAUCGAGUGA [Fam2.1 aminoacylation ribozyme variant] | 8.19 | 7.89 | 4.01 | 9.31 | 57.7 | 3.84 |
| AAGUUUGCUAAUAGCCGCCAG [Fam3.1 aminoacylation ribozyme variant] | 1.03 | 1.1 | 1.45 | 1.21 | 0.63 | 1.52 |
| CCACACUUCAAUCAAUCGGUG [Fam1B.1 aminoacylation ribozyme variant] | 3.6 | 2.66 | 1.98 | 2.57 | 2.64 | 2.23 |
| AUUCACCAAGGUCAUCGGGAG [Fam2.2 aminoacylation ribozyme variant] | 1.57 | 1.19 | 1.11 | 1.27 | 4.38 | 1.36 |
| CUAUUUCAAACAAACGGUCUG [Fam1A.1 aminoacylation ribozyme variant] | 0.72 | 0.923 | 0.971 | 0.586 | 1.2 | 0.961 |
| CCACACUUCGAGCAAUCGGAC [Fam1B.1 aminoacylation ribozyme variant] | 0.935 | 0.897 | 1.67 | 0.929 | 0.331 | 0.916 |
| AUUCACUUAGGUGAUCGGGUG [Fam2.2 aminoacylation ribozyme variant] | 3.43 | 2.59 | 2.5 | 3.03 | 13.3 | 2.46 |
| CUUCUUCAAACAACCGGUCUG [Fam1A.1 aminoacylation ribozyme variant] | 0.961 | 0.98 | 0.949 | 0.846 | 0.852 | 1.11 |
| AAGUUUGCUAAGAGUGGCAAG [Fam3.1 aminoacylation ribozyme variant] | 0.724 | 0.955 | 1.11 | 0.872 | 0.543 | 0.861 |
| CUACACUUCAGGCAAUCGGUC [Fam1B.1 aminoacylation ribozyme variant] | 0.97 | 1.01 | 1.01 | 0.839 | 1.49 | 1 |
| CUAGUUUAAACAAUCGGUCUG [Fam1A.1 aminoacylation ribozyme variant] | 0.774 | 0.84 | 0.765 | 0.631 | 0.814 | 0.924 |
| UUGCACCUAGGUCAUCGGGUG [Fam2.2 aminoacylation ribozyme variant] | 4.63 | 3.89 | 3.66 | 5.53 | 38.8 | 3.11 |
| AUUGCCCUGGUAAUCGAGUGA [Fam2.1 aminoacylation ribozyme variant] | 7.99 | 8.63 | 3.92 | 9.18 | 56 | 3.71 |
| CCACUUAAAACAAUCGGUCUG [Fam1A.1 aminoacylation ribozyme variant] | 1.05 | 1.44 | 1.13 | 1.12 | 0.816 | 1.11 |
| AUUCACCUAGGUCUGCGGGUG [Fam2.2 aminoacylation ribozyme variant] | 4.85 | 4.69 | 2.58 | 3.44 | 12.8 | 3.08 |
| CUACUUGAAACAAUCGGGCUG [Fam1A.1 aminoacylation ribozyme variant] | 1.83 | 1.95 | 1.93 | 2.37 | 1.26 | 1.51 |
| GUUCACCUAGGUCAUCCGGUG [Fam2.2 aminoacylation ribozyme variant] | 6.89 | 6.69 | 5.33 | 7.53 | 45.4 | 5.36 |
| CUACAUGAAACAAUCGGUCUG [Fam1A.1 aminoacylation ribozyme variant] | 0.721 | 0.868 | 0.803 | 0.772 | 0.716 | 0.828 |
| CUACUCCAAACACUCGGUCUG [Fam1A.1 aminoacylation ribozyme variant] | 1.03 | 0.93 | 0.962 | 1.52 | 1.15 | 1.12 |
| AUACACCUAGAUCAUCGGGUG [Fam2.2 aminoacylation ribozyme variant] | 2.73 | 3 | 1.69 | 3.43 | 7.92 | 1.85 |
| AUUCACCGUGGUCAUCGGGUG [Fam2.2 aminoacylation ribozyme variant] | 9.19 | 9.04 | 6.1 | 8.84 | 59.5 | 5.23 |

| Sequence | self-aminoacylation (biotinyl-Leu-oxazolone) | self-aminoacylation (biotinyl-Met-oxazolone) | self-aminoacylation (biotinyl-Val-oxazolone) | self-aminoacylation (biotinyl-Trp-oxazolone) | self-aminoacylation (biotinyl-Phe-oxazolone) | self-aminoacylation (biotinyl-Ile-oxazolone) |
| --- | --- | --- | --- | --- | --- | --- |
| AAGUUUGCAAAUAGUCACAAG [Fam3.1 aminoacylation ribozyme variant] | 0.949 | 1.11 | 0.982 | 0.887 | 0.954 | 1.05 |
| AUUUCCCUCGUCAUCGAGUGA [Fam2.1 aminoacylation ribozyme variant] | 3.93 | 3.39 | 2.6 | 4.57 | 21.2 | 2.5 |
| AUUCACCUAGAUCAACGGGUG [Fam2.2 aminoacylation ribozyme variant] | 5.41 | 4.52 | 2.49 | 4.38 | 25.3 | 2.73 |
| AUUCACCUAGUUCAUCGGGCG [Fam2.2 aminoacylation ribozyme variant] | 1.96 | 2.19 | 1.93 | 2.88 | 5.7 | 1.95 |
| GCACACUUCAAGCAAUCGGGC [Fam1B.1 aminoacylation ribozyme variant] | 3.02 | 2.58 | 3.09 | 4.23 | 13.7 | 3.11 |
| AUUCACCUACGACAUCGGGUG [Fam2.2 aminoacylation ribozyme variant] | 5.12 | 3.87 | 2.28 | 3.95 | 24 | 2.48 |
| AUUCACCUGGGUCAUCGGGUU [Fam2.2 aminoacylation ribozyme variant] | 9.06 | 6.89 | 5.13 | 7.09 | 17.4 | 4.39 |
| CCACACUUCAUGCAAACGGUC [Fam1B.1 aminoacylation ribozyme variant] | 0.507 | 0.556 | 0.774 | 0.512 | 0.769 | 0.809 |
| AUUACCCUGACCAUCGAGUGA [Fam2.1 aminoacylation ribozyme variant] | 4.95 | 4.2 | 2.95 | 5.06 | 8.94 | 3.01 |
| AUACUUCAAACAAUCAGUCUG [Fam1A.1 aminoacylation ribozyme variant] | 0.979 | 0.823 | 1.02 | 4.24 | 9.06 | 0.975 |
| CCACACUUCUAGCAAUCGAUC [Fam1B.1 aminoacylation ribozyme variant] | 0.457 | 0.447 | 0.716 | 0.432 | 0.626 | 0.556 |
| AUUAUUCUGGUCAUCGAGUGA [Fam2.1 aminoacylation ribozyme variant] | 6.25 | 5.31 | 3.12 | 7.13 | 22.9 | 3.4 |
| AUUCACCGACGUCAUCGGGUG [Fam2.2 aminoacylation ribozyme variant] | 12.9 | 10.2 | 6.24 | 9.46 | 55.1 | 5.71 |
| CCACACUUCAAACAAUCGGCC [Fam1B.1 aminoacylation ribozyme variant] | 1.61 | 1.96 | 2.19 | 7.9 | 8.32 | 1.77 |
| AUUACACUGGUCAUCGAGUCA [Fam2.1 aminoacylation ribozyme variant] | 0.857 | 0.865 | 0.83 | 0.497 | 0.583 | 0.877 |
| CUAUUUCAAACAAUCGGUCUG [Fam1A.1 aminoacylation ribozyme variant] | 0.838 | 0.789 | 0.781 | 4.39 | 8.5 | 0.819 |
| AAGUUUGCUAAUAGUCGCGAG [Fam3.1 aminoacylation ribozyme variant] | 1.29 | 1.33 | 1.2 | 2 | 2.01 | 1.33 |
| AUUCACCUAGGUCAUCGGUAG [Fam2.2 aminoacylation ribozyme variant] | 0.606 | 0.838 | 0.836 | 0.372 | 0.533 | 0.626 |
| AAGUUUGCUAAUAGUAACAAG [Fam3.1 aminoacylation ribozyme variant] | 1.12 | 1.52 | 1.1 | 1.41 | 1.58 | 1.19 |
| AUUAACCUACGUCAUCGGGUG [Fam2.2 aminoacylation ribozyme variant] | 8.3 | 6.52 | 3.84 | 5.8 | 47.5 | 3.99 |
| GCACACUGCAAGCAAUCGGUC [Fam1B.1 aminoacylation ribozyme variant] | 1.87 | 1.87 | 2.12 | 2.4 | 1.77 | 2.14 |
| AUUCACCUAGGUGACCGGGUG [Fam2.2 aminoacylation ribozyme variant] | 5.29 | 3.84 | 4.19 | 6.82 | 23 | 4.8 |
| ACUACCCUGGUCAUCGGGUGA [Fam2.1 aminoacylation ribozyme variant] | 50.1 | 48 | 20.9 | 57.6 | 293 | 20.6 |
| AUUGCACUGGUCAUCGAGUGA [Fam2.1 aminoacylation ribozyme variant] | 6.88 | 6.01 | 3.93 | 6.67 | 32.7 | 3.68 |
| AUUACCCUGGUCCUCGAGUAA [Fam2.1 aminoacylation ribozyme variant] | 1.33 | 0.966 | 1.36 | 1.64 | 0.542 | 1.35 |
